B1: COUP transcription factor 1, residues 83 to 159; numbered along this chain, P10589 (parent)
chain: HIECVVCGDKSSGKHYGQFTCEGCKSFFKRSVRRNLTYTCRANRNCPIDQHHRNQCQYCRLKKCLKVGMRREAVQRG

Variants of: B1
Test: abundance fitness (aPCA) (normalised: wild type 0, dead -1); higher = more abundant; growth selection in yeast, the domain comes from the species named
Conditions: Homo sapiens

Abundance fitness: each site, then its substitutions
K66: Q 0.055; G -0.09; S 0.074; N 0.058; T 0.025; P -0.785; Y -0.033; V 0.041; A 0.003; H -0.103; E 0.02; L -0.032; I -0.079
M69: R -0.737; Y -0.77; P -0.661; Q -0.831; D -1.06; E -0.723; C -0.38; N -0.864; W -0.629; A -0.943; S -0.783; T -0.719; L -0.027; I -0.484; G -0.711; H -1.08
L65: D 0.015; N -0.322; V -0.019; Q 0.029; R -0.497; S -0.472; K -0.342; A -0.228; M -0.069; F -0.039; Y -0.069; C -0.265; G -0.392; T -0.133; E 0.06; H 0.102
H51: G 0.034; K 0.059; W 0.012; E -0.041; T -0.091; N 0.102; D -0.022; R -0.16; M 0.025; Q 0.081; P -0.138; Y -0.09; V -0.051; L 0.059; I -0.244
C64: V -0.823; H -0.577; S -0.475; R -0.908; K -0.866; M -0.059; I -0.928; F -0.903; E -0.831; W -0.675; D -0.893; L -0.513; A -0.203; Q -0.8; T -0.758; G -0.669; Y -0.537
K62: D 0.053; R -0.073; N 0.146; H -0.198; L -0.015; Y -0.512; M -0.003; W -0.162; S 0.011; P -0.573; V 0.086; I 0.189; A 0.044; Q -0.001; G -0.143; C -0.257
Q57: W 0.156; G 0.07; H 0.054; F -0.036; C -0.093; T -0.088; N 0.163; S -0.059; E 0.183; V -0.567; A -0.035; P -0.042; L -0.221; Y 0.296; R -0.231; D 0.046; M -0.121; K -0.341
K63: A -0.254; P -0.647; G -0.526; H -0.114; S -0.464; L -0.337; V -0.249; C -0.17; Q -0.139; E -0.161; W -0.391; T -0.356; I -0.402; R -0.094; N -0.626; M -0.048; Y -0.277; D -0.874; F -0.372
L61: W -0.05; S -0.691; V -0.555; C -0.649; D -0.799; P -0.65; Q -0.346; K -0.78; H -0.668; E -0.38; N -0.702; R -0.84; Y -0.152; I -0.163; F -0.062; T -0.771; M 0.073; A -0.72; G -0.73
N54: M 0.015; Y -0.104; C -0.314; I 0.092; K -0.089; P 0.006; H -0.116; D -0.071; G -0.153; W -0.194; Q -0.091; L -0.029; T -0.059; E 0.075; V -0.025; F -0.222; S -0.033; R -0.353

— the Human Domainome abundance scans (Beltran et al. 2025)
